The source of these data is paper PMC9424271, “Invariant surface glycoprotein 65 of Trypanosoma brucei is a complement C3 receptor” (Nature Communications, 2022).

The target of assay [1] is ISG65 1125G (residues 24-385), expressed with kifunensine and deglycosylated with Endo Hf (T. brucei EATRO1125). Description: SPR; ISG65 1125G immobilised by amine coupling (345 RU) on a CM5 chip; C3d from 4 uM in two-fold serial dilutions; 30 ul/min, 25 C, 20 mM HEPES pH 7.4, 300 mM NaCl, 0.05% TWEEN-20; 1:1 Langmuir model. (In general: In SPR one partner is held on a chip, and binding of the other changes the refractive index at the surface.)

Assay [2] concerns the target ISG65 1125G (residues 24-385) with C-terminal AviTag and His10 tag, biotinylated (T. brucei EATRO1125). Description: SPR; biotinylated ISG65G (CHO, ~800 RU) on a streptavidin chip (SA); C3b and C3c from 500 nM in two-fold dilutions to 15.6 nM; 30 ul/min, 25 C, 20 mM HEPES pH 7.4, 150 mM NaCl, 0.005% TWEEN-20; C3b fitted to a two-state reaction model, C3c to a 1:1 Langmuir model.

Another assay deals with T1, Human complement C3b (human, UniProt P01024).
T1 construct: source: bought: Complement Technology
The experiment in a line: SPR; biotinylated ISG65G (CHO, ~800 RU) immobilised on a streptavidin chip (Series S SA); C3b and C3c from 500 nM in two-fold dilutions to 15.6 nM; 30 ul/min, 25 C, 20 mM HEPES pH 7.4, 150 mM NaCl, 0.005% TWEEN-20; C3b fitted to a two-state reaction model, C3c to the 1:1 Langmuir model; averages of three flow paths with different immobilisation levels. The settings on record: both partners purified.

For a further assay, the target named is T2, Human complement C3c (human, UniProt P01024).
T2 construct: source: bought: Complement Technology; copies: + +
Described as above. The settings on record: both partners purified.

Assay [3] deals with T3, Complement C3d (residues 996-1303 of H. sapiens C3, C1010A) (human, UniProt P01024 996-1303, C1010A).
T3 construct: also called C3d-WT; TED domain
The experiment in a line: SPR; ISG65 1125G immobilised by amine coupling (345 RU) on a CM5 chip; C3d from 4 uM in two-fold dilutions; 30 ul/min, 25 C, 20 mM HEPES pH 7.4, 300 mM NaCl, 0.05% TWEEN-20; 1:1 Langmuir model; averages of three repeats on the same flow path. The settings on record: both partners purified.

Usually Kd stands for the constant that tells how readily two partners part at equilibrium. One may read the koff as a measure of how fast the partners let go of each other. Read a high koff as fast dissociation. A word on the kon: it is the second-order rate constant of association. High values mean faster complex formation, low ones slower complex formation.

T2 sequence (P01024 23-667, chain 1 of 3): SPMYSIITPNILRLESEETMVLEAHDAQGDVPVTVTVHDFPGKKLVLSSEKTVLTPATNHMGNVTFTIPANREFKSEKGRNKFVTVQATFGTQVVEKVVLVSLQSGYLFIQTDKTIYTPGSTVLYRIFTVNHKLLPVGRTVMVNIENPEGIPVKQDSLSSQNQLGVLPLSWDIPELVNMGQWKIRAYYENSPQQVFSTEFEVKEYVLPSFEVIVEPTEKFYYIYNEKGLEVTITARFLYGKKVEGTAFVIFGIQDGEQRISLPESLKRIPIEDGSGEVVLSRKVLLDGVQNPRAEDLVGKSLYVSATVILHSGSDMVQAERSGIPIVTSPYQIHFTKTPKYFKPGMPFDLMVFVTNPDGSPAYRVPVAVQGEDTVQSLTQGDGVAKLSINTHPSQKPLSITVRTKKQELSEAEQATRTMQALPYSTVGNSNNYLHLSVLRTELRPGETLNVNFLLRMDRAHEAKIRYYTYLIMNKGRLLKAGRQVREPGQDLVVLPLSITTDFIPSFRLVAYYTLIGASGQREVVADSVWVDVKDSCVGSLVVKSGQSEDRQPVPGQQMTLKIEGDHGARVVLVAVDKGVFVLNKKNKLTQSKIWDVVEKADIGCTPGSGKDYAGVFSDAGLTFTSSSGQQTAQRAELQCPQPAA
T2 sequence (P01024 749-954, chain 2 of 3): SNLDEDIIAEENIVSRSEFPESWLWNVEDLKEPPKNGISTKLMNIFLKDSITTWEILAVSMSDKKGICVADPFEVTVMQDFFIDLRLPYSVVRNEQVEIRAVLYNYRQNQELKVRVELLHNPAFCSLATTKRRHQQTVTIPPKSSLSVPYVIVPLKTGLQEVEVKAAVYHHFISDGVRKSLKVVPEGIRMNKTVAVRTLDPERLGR
T2 sequence (P01024 1321-1663, chain 3 of 3): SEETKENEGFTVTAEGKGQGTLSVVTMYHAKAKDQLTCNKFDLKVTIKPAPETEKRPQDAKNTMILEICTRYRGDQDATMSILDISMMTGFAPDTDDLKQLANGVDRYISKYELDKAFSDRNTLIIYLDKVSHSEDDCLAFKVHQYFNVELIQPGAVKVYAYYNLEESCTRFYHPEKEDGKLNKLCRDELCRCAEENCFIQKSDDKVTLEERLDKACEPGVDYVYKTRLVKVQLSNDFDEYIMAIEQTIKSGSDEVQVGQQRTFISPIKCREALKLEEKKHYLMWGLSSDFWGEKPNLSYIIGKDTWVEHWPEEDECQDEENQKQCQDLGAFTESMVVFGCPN
T3 sequence (P01024 996-1303 C1010A): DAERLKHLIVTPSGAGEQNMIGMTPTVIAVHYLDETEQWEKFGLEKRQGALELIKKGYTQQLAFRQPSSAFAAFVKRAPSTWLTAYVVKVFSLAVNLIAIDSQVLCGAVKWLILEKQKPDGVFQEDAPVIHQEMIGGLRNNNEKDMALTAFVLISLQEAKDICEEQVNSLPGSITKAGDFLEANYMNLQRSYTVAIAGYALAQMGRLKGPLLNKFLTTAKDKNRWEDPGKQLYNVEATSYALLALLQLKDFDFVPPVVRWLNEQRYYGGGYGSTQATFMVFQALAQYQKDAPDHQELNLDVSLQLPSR
T1 sequence (P01024 23-667, chain 1 of 2): as the sequence (P01024 23-667, chain 1 of 3) above
T1 sequence (P01024 749-1663, chain 2 of 2): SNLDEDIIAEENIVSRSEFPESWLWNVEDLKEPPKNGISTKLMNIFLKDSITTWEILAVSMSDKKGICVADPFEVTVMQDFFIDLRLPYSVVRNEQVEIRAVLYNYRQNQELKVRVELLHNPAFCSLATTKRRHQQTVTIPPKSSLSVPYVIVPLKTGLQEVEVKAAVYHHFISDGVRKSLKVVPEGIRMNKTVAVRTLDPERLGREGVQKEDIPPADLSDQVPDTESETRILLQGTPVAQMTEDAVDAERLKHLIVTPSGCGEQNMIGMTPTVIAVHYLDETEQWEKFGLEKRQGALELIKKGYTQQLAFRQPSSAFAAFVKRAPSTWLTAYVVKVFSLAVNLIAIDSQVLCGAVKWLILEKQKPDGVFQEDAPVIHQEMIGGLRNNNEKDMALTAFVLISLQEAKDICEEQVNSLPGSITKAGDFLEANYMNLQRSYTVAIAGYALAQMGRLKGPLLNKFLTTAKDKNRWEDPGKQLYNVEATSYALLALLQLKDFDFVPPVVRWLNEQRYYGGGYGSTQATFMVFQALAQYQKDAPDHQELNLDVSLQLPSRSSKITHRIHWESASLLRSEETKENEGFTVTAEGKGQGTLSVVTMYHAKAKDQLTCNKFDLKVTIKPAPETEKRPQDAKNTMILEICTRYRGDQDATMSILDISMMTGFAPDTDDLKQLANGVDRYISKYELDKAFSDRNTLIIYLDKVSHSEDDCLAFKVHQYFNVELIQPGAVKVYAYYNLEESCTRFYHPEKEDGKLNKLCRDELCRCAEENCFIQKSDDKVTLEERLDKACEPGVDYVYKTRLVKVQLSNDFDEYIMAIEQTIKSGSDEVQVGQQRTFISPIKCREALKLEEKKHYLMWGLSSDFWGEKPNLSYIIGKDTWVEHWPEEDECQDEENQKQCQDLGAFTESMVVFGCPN

The molecule “human complement C3d (C3 residues 996-1303, C1010A) (from UniProt P01024 996-1303) (domain or fragment)” gave a Kd in assay [1] of 602 nM.

“human complement C3b (from UniProt P01024 749-1663) (domain or fragment)”: the Kd in assay [2] worked out at 40 nM.

On to “human complement C3c (domain or fragment)”, for which, in assay [2], the Kd came to 750 nM. This Kd is about 19-fold higher than that of the molecule before.

B1: ISG65 1125G (residues 24-385), biotinylated (domain or fragment)
chain: EDNRVPGDKNLTKEGAAALCKMKHLADKVAEKRSQELKDRTQNFAGYIEFELYRIDYWLEKLNGPKGRKDGYAKLSDSDIEKVKEIFDKAKDGIAKQLPEAKKAGEDAEKLHTEVKEAAANARGQDLDDHKQKSTGLYRVLNWYCITKEESHNATPNCDGIQFRNHYLSVNRSAIDCSSTGYEENYDWSANALQVALNSWENVKPKKLESAGSDENCNIGQSSESHPCTMTEEWQTHYKETVKKLKELEGAHEKGRRAHDAMLGYANTAYAVNTKVEQEKPLAEVIAAAKEAGKKGAKIIIPAAAPVTPTNSTKNEDSAPTEHVDRGIATNETQVEVGIDADFDGLLEAAEAAEVTRRHQKTGSGSGSASG
modifications: biotin on the AviTag
notes: also called ISG65G; ISG65 E1125G
For the molecule B1, in the assay with Human complement C3b, binding was characterised by a dissociation constant (Kd) of 67 nM. In the assay with Human complement C3c, this molecule registered a Kd of 391 nM, a koff of 0.008 s⁻¹ and a kon of 20000 M⁻¹ s⁻¹.

B2: ISG65 1125G (residues 24-385), expressed with kifunensine and treated with Endo Hf (domain or fragment)
chain: B1 chain
notes: also called ISG65G
In assay [3], B2 returned a Kd of 514 nM, a dissociation rate constant (koff) of 0.1 s⁻¹ and a kon of 300000 M⁻¹ s⁻¹.
